Results reported in the Immune Epitope Database (IEDB).
pIC50, pKd: −log10 of the molar value.

Tests used:
HLA-A*03:01 [1] = assay: IEDB peptide-MHC binding, purified MHC/competitive/fluorescence; ≥ and ≤ were set here for values at or beyond the usual limits of such assays
HLA-A*11:01 [2] = assay: as above
HLA-A*24:02 = assay: as above
HLA-A*02:01 [3] = assay: as above
HLA-B*27:05 = assay: IEDB peptide-MHC binding, purified MHC/direct/fluorescence; filed as Kd, often an IC50 or EC50 that approximates it; ≥ and ≤ were set here for values at or beyond the usual limits of such assays
HLA-B*48:01 = assay: as above; settings: source organism: West Nile virus
HLA-A*31:01 [4] = assay: IEDB peptide-MHC binding, purified MHC/competitive/fluorescence; filed as Kd, often an IC50 or EC50 that approximates it; ≥ and ≤ were set here for values at or beyond the usual limits of such assays
HLA-A*03:01 [5] = assay: as above
HLA-B*18:01 [6] = assay: IEDB peptide-MHC binding, purified MHC/direct/fluorescence; filed as Kd, often an IC50 or EC50 that approximates it; ≥ and ≤ were set here for values at or beyond the usual limits of such assays; settings: source organism: Orthohantavirus hantanense
HLA-B*40:01 = assay: as above
HLA-B*44:02 = assay: as above
HLA-A*01:01 [7] = assay: IEDB peptide-MHC binding, purified MHC/competitive/fluorescence; filed as Kd, often an IC50 or EC50 that approximates it; ≥ and ≤ were set here for values at or beyond the usual limits of such assays; settings: source organism: Xenopus laevis
HLA-A*29:02 = assay: as above
HLA-A*11:01 [8] = assay: IEDB peptide-MHC binding, purified MHC/direct/fluorescence; filed as Kd, often an IC50 or EC50 that approximates it; ≥ and ≤ were set here for values at or beyond the usual limits of such assays
HLA-A*03:01 [9] = assay: as above
HLA-A*69:01 [10] = assay: as above
HLA-A*02:11 = assay: as above
HLA-A*02:03 = assay: as above; settings: source organism: Mycobacterium tuberculosis F11
HLA-A*24:03 = assay: as above; settings: source organism: Campylobacter jejuni
HLA-A*31:01 [11] = assay: as above; settings: source organism: Campylobacter jejuni
HLA-A*01:01 [12] = assay: as above; settings: source organism: Campylobacter jejuni
HLA-B*07:02 = assay: as above; settings: source organism: Campylobacter jejuni
HLA-A*26:01 [13] = assay: as above; settings: source organism: Campylobacter jejuni
HLA-B*15:01 [14] = assay: as above; settings: source organism: Campylobacter jejuni
HLA-A*02:01 [15] = assay: as above
HLA-B*08:01 = assay: as above; settings: source organism: Campylobacter jejuni
HLA-B*58:01 = assay: as above; settings: source organism: Campylobacter jejuni
HLA-B*15:01 [16] = assay: IEDB peptide-MHC binding, purified MHC/competitive/fluorescence; ≥ and ≤ were set here for values at or beyond the usual limits of such assays; settings: source organism: Zaire ebolavirus
HLA-A*02:17 = assay: IEDB peptide-MHC binding, purified MHC/competitive/radioactivity; filed as Kd, often an IC50 or EC50 that approximates it; ≥ and ≤ were set here for values at or beyond the usual limits of such assays; settings: source organism: Dengue virus 1 Singapore/S275/1990
HLA-A*02:12 = assay: IEDB peptide-MHC binding, purified MHC/direct/fluorescence; filed as Kd, often an IC50 or EC50 that approximates it; ≥ and ≤ were set here for values at or beyond the usual limits of such assays
HLA-A*02:19 = assay: as above
HLA-A*69:01 [17] = assay: IEDB peptide-MHC binding, purified MHC/competitive/fluorescence; filed as Kd, often an IC50 or EC50 that approximates it; ≥ and ≤ were set here for values at or beyond the usual limits of such assays; settings: source organism: Orthohantavirus tulaense
HLA-A*26:01 [18] = assay: as above; settings: source organism: Orthohantavirus tulaense
HLA-B*57:01 = assay: as above; settings: source organism: Orthohantavirus tulaense
HLA-B*18:01 [19] = assay: as above; settings: source organism: Orthohantavirus tulaense
HLA-B*27:03 = assay: as above; settings: source organism: Orthohantavirus tulaense
HLA-B*51:01 = assay: as above; settings: source organism: Orthohantavirus tulaense
HLA-A*68:02 = assay: IEDB peptide-MHC binding, purified MHC/direct/fluorescence; filed as Kd, often an IC50 or EC50 that approximates it; ≥ and ≤ were set here for values at or beyond the usual limits of such assays; settings: source organism: Orthohantavirus tulaense
[20] = source organism: Zaire ebolavirus
[21] = source organism: Sudan ebolavirus
[22] = source organism: Escherichia coli
[23] = source organism: Orthohantavirus hantanense
[24] = source organism: Bacillus anthracis str. A0488
[25] = source organism: Influenza A virus (A/quail/Hong Kong/FY298/00(H9N2))
[26] = source organism: Campylobacter jejuni
[27] = source organism: Influenza A virus (A/swine/Bakum/5/95(H1N1))
[28] = source organism: Escherichia coli O157:H7
[29] = source organism: Dengue virus 2 Thailand/16681/84
[30] = source organism: Vaccinia virus
[31] = source organism: Influenza A virus
[32] = source organism: Hantaanvirus CGRn93P8

In the case of NPGTYVYFY, the pIC50 (HLA-A*03:01 [1]; source organism: Variola virus) was at most 3.37, the pIC50 (HLA-A*11:01 [2]; source organism: Variola virus) was 4.41 and the pIC50 (HLA-A*24:02; source organism: Variola virus) was 4.26.
DETSSLPPL was tested, and the pIC50 (HLA-A*03:01 [1]; [20]) was at most 3.48 and the pIC50 (HLA-A*11:01 [2]; [20]) was at most 4.14.
AMVTLRKER gave a pIC50 (HLA-A*03:01 [1]; [20]) of 4.52, a pIC50 (HLA-A*11:01 [2]; [20]) of 4.53 and a pIC50 (HLA-A*02:01 [3]; [20]) of 4.52.
Work on KRVQEVKGY yielded a pKd (HLA-B*27:05; source organism: West Nile virus) of 6.11 and a pKd (HLA-B*48:01) of at most 4.70.
KAIDFLLRR gave a pIC50 (HLA-A*03:01 [1]; [21]) of 5.24, a pIC50 (HLA-A*11:01 [2]; [21]) of 5.56 and a pIC50 (HLA-A*02:01 [3]; [21]) of at most 4.00.
ATTELRTFS gave a pIC50 (HLA-A*03:01 [1]; [20]) of at most 3.91, a pIC50 (HLA-A*11:01 [2]; [20]) of 4.95 and a pIC50 (HLA-A*02:01 [3]; [20]) of at most 3.69.
In the case of ALRGVAVGR, the pKd (HLA-A*31:01 [4]; [22]) was 8.42 and the pKd (HLA-A*03:01 [5]; [22]) was 8.01.
In the case of IEADIEHFL, the pKd (HLA-B*18:01 [6]) was 7.23, the pKd (HLA-B*40:01; [23]) was 8.92 and the pKd (HLA-B*44:02; [23]) was 5.12.
Sequence KLSSMAAER has a pKd (HLA-A*31:01 [4]; [24]) of 7.80 and a pKd (HLA-A*03:01 [5]; [24]) of 7.06.
In the case of GSASPTPPY, the pKd (HLA-A*01:01 [7]) was 7.37 and the pKd (HLA-A*29:02; source organism: Xenopus laevis) was 8.43.
RVDGLELKK gave a pKd (HLA-A*31:01 [4]; source organism: Yellow fever virus) of at most 4.70 and a pKd (HLA-A*11:01 [8]; source organism: Yellow fever virus 17D) of 7.73.
Sequence NTMTKDAER has a pKd (HLA-A*31:01 [4]; source organism: Influenza A virus (A/Fort Monmouth/1/1947-mouse adapted(H1N1))) of 6.97, a pKd (HLA-A*03:01 [9]; [25]) of at most 4.70 and a pKd (HLA-A*11:01 [8]; [25]) of at most 4.70.
With FLFGDDDAL the pKd (HLA-A*69:01 [10]; source organism: Mycobacterium tuberculosis) was 5.68, the pKd (HLA-A*02:11; source organism: Mycobacterium tuberculosis F11) was 8.52 and the pKd (HLA-A*02:03) was 8.70.
With VFKVKLHEI the pKd (HLA-A*24:03) was 7.03, the pKd (HLA-A*31:01 [11]) was at most 4.70 and the pKd (HLA-A*01:01 [12]) was at most 4.70. It also gave a pKd (HLA-B*07:02) of at most 4.70, a pKd (HLA-A*69:01 [10]; [26]) of at most 4.70 and a pKd (HLA-A*26:01 [13]) of at most 4.70. The pKd (HLA-A*03:01 [9]; [26]) was at most 4.70, the pKd (HLA-A*11:01 [8]; [26]) was at most 4.70 and the pKd (HLA-B*15:01 [14]) was at most 4.70. It also gave a pKd (HLA-B*27:05; [26]) of at most 4.70, a pKd (HLA-B*40:01; [26]) of at most 4.70 and a pKd (HLA-A*02:01 [15]; [26]) of 4.73. The pKd (HLA-B*08:01) was 6.41, the pKd (HLA-B*44:02; [26]) was at most 4.70 and the pKd (HLA-B*58:01) was at most 4.70.
KNSPGMVPL showed a pIC50 (HLA-A*03:01 [1]; [21]) of at most 3.70, a pIC50 (HLA-A*11:01 [2]; [21]) of 4.65 and a pIC50 (HLA-A*02:01 [3]; [21]) of at most 4.00.
Sequence LTYVQLESR has a pIC50 (HLA-A*03:01 [1]; [20]) of 5.06 and a pIC50 (HLA-A*11:01 [2]; [20]) of 5.79.
GINDRNFWR showed a pKd (HLA-A*31:01 [4]; source organism: Influenza A virus (A/swine/Italy/1509-6/97(H1N1))) of 8.50, a pKd (HLA-A*03:01 [9]; [27]) of 5.38 and a pKd (HLA-A*11:01 [8]; [27]) of 6.83.
In the case of MLRLWWIPY, the pKd (HLA-A*31:01 [4]; source organism: Escherichia coli HS) was at most 4.70, the pKd (HLA-A*03:01 [9]; [28]) was 5.00 and the pKd (HLA-A*11:01 [8]; [28]) was at most 4.70.
With KVQRQIQVH the pIC50 (HLA-A*03:01 [1]; [20]) was 4.75, the pIC50 (HLA-A*11:01 [2]; [20]) was 4.80 and the pIC50 (HLA-B*15:01 [16]) was 4.35. For the same sequence, the pIC50 (HLA-A*02:01 [3]; [20]) was at most 3.67 and the pIC50 (HLA-A*24:02; [20]) was 4.81.
GGQQKNSQK was tested, and the pIC50 (HLA-A*03:01 [1]; [20]) was at most 3.93 and the pIC50 (HLA-A*11:01 [2]; [20]) was 5.80.
With KMDIGVPLL the pKd (HLA-A*02:17) was 5.90, the pKd (HLA-A*02:12; [29]) was 8.40 and the pKd (HLA-A*69:01 [10]; source organism: Dengue virus 1 Singapore/S275/1990) was at most 4.70. For the same sequence, the pKd (HLA-A*02:11; [29]) was at least 9.00 and the pKd (HLA-A*02:19; [29]) was 7.80.
KAENTNTSK gave a pIC50 (HLA-A*03:01 [1]; [20]) of at most 3.60 and a pIC50 (HLA-A*11:01 [2]; [20]) of 4.45.
FMFNELLAL showed a pKd (HLA-A*69:01 [17]) of at most 4.70, a pKd (HLA-A*26:01 [18]) of at most 4.70 and a pKd (HLA-B*57:01) of at most 4.70. The pKd (HLA-B*18:01 [19]) was at most 4.70, the pKd (HLA-B*27:03) was at most 4.70 and the pKd (HLA-B*51:01) was at most 4.70. The pKd (HLA-A*68:02) was at most 4.70, the pKd (HLA-A*03:01 [9]; source organism: Orthohantavirus tulaense) was at most 4.70 and the pKd (HLA-A*02:01 [15]; source organism: Orthohantavirus puumalaense) was 9.70.
IVNMGNPDY gave a pKd (HLA-A*29:02; source organism: Encephalitozoon cuniculi GB-M1) of 7.26.
Work on KSSKYYIKN yielded a pIC50 (HLA-A*03:01 [1]; [30]) of at most 2.74 and a pIC50 (HLA-A*24:02; [30]) of at most 2.85.
GIWHGPYWH was tested, and the pKd (HLA-A*29:02; source organism: Clostridium botulinum E3 str. Alaska E43) was 6.64.
With LIAPRGYFK the pKd (HLA-A*31:01 [4]; [31]) was 7.47 and the pKd (HLA-A*03:01 [5]; [31]) was 7.97.
ASSRITKGR gave a pIC50 (HLA-A*03:01 [1]; [21]) of 4.96 and a pIC50 (HLA-A*11:01 [2]; [21]) of 6.12.
QMISPVMSV gave a pKd (HLA-A*02:12; [32]) of 8.52, a pKd (HLA-A*69:01 [10]; [23]) of 8.92 and a pKd (HLA-A*02:11; [32]) of at least 9.00. It also gave a pKd (HLA-A*02:19; [32]) of 8.15 and a pKd (HLA-A*02:01 [15]; [23]) of at least 9.00.
VGGDIRTLY gave a pKd (HLA-A*29:02; source organism: Coxiella burnetii RSA 331) of 7.16.
